Data as given in the supplement of paper PMC7125110.
± gives the standard error. This sample holds only a part of the variants without activity.

B1: glmS ribozyme (parent)
chain: AUAAAAGCGCCAGAACUACAGAAAUGUAGUUGACGAGGAGGAGGUUUAUCGAAUUUUCGGCGGAUGCCUCCAAA

Key:
Conditions in all cases: with glucosamine-6-phosphate
glucosamine-6-phosphate [1] = variants of: B1; assay: self-cleavage kobs at 40 uM GlcN6P; higher = faster cleavage; RNA array
Procedure, shortened: (§1)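 kobs was derived by fitting per-tile medians to one- or two-exponential decays after normalising signals to baseline and to non-cleaving reference variants. Those signals came from barcoded ribozyme variants transcribed in situ by E. coli RNA polymerase on sequenced MiSeq chips, followed through a hybridised Cy3 probe at 37 °C and imaged over ~14 h. Glucosamine-6-phosphate (40 μM to 10 mM) in HEPES/KCl/Mg(OAc)2 buffer was flowed in. Weighted Michaelis–Menten fits across concentrations then gave kcat and KM.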

glucosamine-6-phosphate [2] = variants of: B1; assay: self-cleavage kobs at 10000 uM GlcN6P; higher = faster cleavage; RNA array
Procedure, shortened: as §1

glucosamine-6-phosphate [3] = variants of: B1; assay: self-cleavage kobs at 160 uM GlcN6P; higher = faster cleavage; RNA array
Procedure, shortened: as §1

glucosamine-6-phosphate [4] = variants of: B1; assay: self-cleavage kobs at 640 uM GlcN6P; higher = faster cleavage; RNA array
Procedure, shortened: as §1

glucosamine-6-phosphate [5] = variants of: B1; assay: self-cleavage kobs at 2500 uM GlcN6P; higher = faster cleavage; RNA array
Procedure, shortened: as §1

| Variant | self-cleavage kobs at 40 uM GlcN6P (glucosamine-6-phosphate [1]) | self-cleavage kobs at 10000 uM GlcN6P (glucosamine-6-phosphate [2]) | self-cleavage kobs at 160 uM GlcN6P (glucosamine-6-phosphate [3]) | self-cleavage kobs at 640 uM GlcN6P (glucosamine-6-phosphate [4]) | self-cleavage kobs at 2500 uM GlcN6P (glucosamine-6-phosphate [5]) |
| --- | --- | --- | --- | --- | --- |
| A14U C50G C58G | 0.000124 ± 3.9e-05 s⁻¹ | 0.000108 ± 2.7e-05 s⁻¹ | – | – | – |
| C16U A33U G38A G40A | < 1e-05 s⁻¹ | < 1e-05 s⁻¹ | – | – | – |
| A15C G62A | < 1e-05 s⁻¹ | < 1e-05 s⁻¹ | < 1e-05 s⁻¹ | < 1e-05 s⁻¹ | < 1e-05 s⁻¹ |
| C16G G63A | < 1e-05 s⁻¹ | < 1e-05 s⁻¹ | – | – | – |
| A14G G29U A36G | < 1e-05 s⁻¹ | – | – | – | – |
| A15C G63U | < 1e-05 s⁻¹ | < 1e-05 s⁻¹ | – | < 1e-05 s⁻¹ | – |
| C16G G21U | 0.00012 ± 5.7e-05 s⁻¹ | – | – | – | – |
| C16U A42U U45C G59A C68U | < 1e-05 s⁻¹ | < 1e-05 s⁻¹ | – | – | – |
| A15G G37A A39C C61U U69G | < 1e-05 s⁻¹ | – | – | – | – |
| C16G G40A A64C | < 1e-05 s⁻¹ | < 1e-05 s⁻¹ | – | – | – |
| G21U G40C | 0.000253 ± 6.1e-05 s⁻¹ | 0.00248 ± 0.00053 s⁻¹ | – | – | – |
| C16G C34A G38C U65C | < 1e-05 s⁻¹ | – | – | – | – |
| A15C G32U G40U | < 1e-05 s⁻¹ | 5.23e-05 ± 1.4e-05 s⁻¹ | – | – | – |
| A15G G29U U54C | 2.83e-05 ± 1.3e-05 s⁻¹ | – | – | 0.000321 ± 0.0001 s⁻¹ | 0.000796 ± 0.00016 s⁻¹ |
| A15G G41U | 0.000204 ± 2.3e-05 s⁻¹ | – | 0.000282 ± 4.5e-05 s⁻¹ | 0.000507 ± 8.7e-05 s⁻¹ | 0.00155 ± 0.00029 s⁻¹ |
| C16U C50G G59A C68A | 4.62e-05 ± 2.3e-05 s⁻¹ | 4.07e-05 ± 1.3e-05 s⁻¹ | – | – | – |
| A14U G35U G44C | < 1e-05 s⁻¹ | < 1e-05 s⁻¹ | < 1e-05 s⁻¹ | < 1e-05 s⁻¹ | < 1e-05 s⁻¹ |
| C16A A33U G38C | < 1e-05 s⁻¹ | – | – | – | < 1e-05 s⁻¹ |
| C16A U55A G63U | < 1e-05 s⁻¹ | – | – | – | – |
| A14G G41A | 0.000282 ± 3.2e-05 s⁻¹ | 0.00645 ± 0.0016 s⁻¹ | 0.000481 ± 7.9e-05 s⁻¹ | 0.00125 ± 0.00022 s⁻¹ | 0.00232 ± 0.00052 s⁻¹ |
| A14U U54A G59C | < 1e-05 s⁻¹ | < 1e-05 s⁻¹ | – | – | – |
| C16U G41U A53U | 3.27e-05 ± 1.6e-05 s⁻¹ | 0.00071 ± 0.00015 s⁻¹ | – | – | – |
| C16A U47C C50G G66A C67U U69G | 7.74e-05 ± 2.6e-05 s⁻¹ | 4.24e-05 ± 1.6e-05 s⁻¹ | – | – | – |
| C16A C61U C70A | < 1e-05 s⁻¹ | – | – | – | – |
| A15U G29A G43A | < 1e-05 s⁻¹ | < 1e-05 s⁻¹ | – | – | – |
| A15U A36G | < 1e-05 s⁻¹ | < 1e-05 s⁻¹ | – | < 1e-05 s⁻¹ | – |
| C16U G29A G37C | < 1e-05 s⁻¹ | 5.01e-05 ± 1.6e-05 s⁻¹ | – | – | – |
